Results taken from the nanobody polyreactivity screen of Harvey et al. (2022).

Assay: yeast display, Sf9 membrane polyspecificity reagent, FACS + sequencing; frameworks hold sequencing errors
Procedure, shortened: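 Nanobodies from a synthetic yeast display library (Saccharomyces cerevisiae BJ5465), induced 36–48 hours with galactose, were stained 1 hour at 4 °C with 10% biotinylated, detergent-solubilized Sf9 membrane reagent, enriched on streptavidin microbeads, then FACS-sorted. Anti-HA (expression) and streptavidin (reagent binding) fluorescence set low and high (top ~1%) gates. Polyreactivity labels come from the gate of origin. Genes were colony-PCR amplified, MiSeq 2 × 250 sequenced and filtered by CDR length.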

Sequence | polyreactivity (PSR sort gate)
QVQLVESGGGLVQAGGSLRLSCAASGSTFRYYVMGWYRQAPWKERELVAGITKSGGNTYYADSVKGRFTISRDNAKNTVYLQMNSLKPEDTAVYYCAARGLWTRGYYYWGQGTQVTVSS | high polyreactivity
QVQLVESGGGLVQAGGSLRLSCAASGSTFDFYPMGWYRQAPGKERELVAAIRIGGNPNYADSVKGRLTISRDNAKNTVYLQLNSLKPEDTAVYYCARDDTYDTPLSPYDYWGQGTQVTVSS | low polyreactivity
QVQQVESGGGLVQAGGSLRLSCAASGTFGYYAMGWYRQAPGKERELVAGITWSGGSTYYADSVKGRFTISRDNAKNTVYLQMNSLKPEDTAVYYCATSSYTGYWGQGTQVTVSS | low polyreactivity
QVQLVESGGGLVQAGGSLRLSCAASGNTFYVNVMGWYRQAPGKERELVARITTSGGSTSYADSVKGRFTISRDNAKNTVYLQMNSLKPEDTAVYYCAADFPEYYLPYDYWGQGTQVTVSS | low polyreactivity
QVQLVESGGGLGQAGGSLRLSCAASGRIFSQNAMGWYRQAPGNERELVAAITGNGGDTYYADSVKGRFTISRDNAKNTVYLQMNSLKPEDTAVYYCAARVPPVYGRVGGYHYWGPGTQVTVSS | low polyreactivity
QVQLVESGGGLVQAGGSLRLSCAASGSTFVYNDMGWYRQAPGKEGELVAGITTSGGSTYYADSVKGRFTISRDNAKNTVYLQINSLKPEDTAVYYCAARAFSAWLEMDYWGQGTQVTVSS | low polyreactivity
QVQLVETGGGLVQAGGSLRLSCAASGRIFPFYAMGWYRQAPGKERELVAAISWNGGSTFYADSVKGRFTISRDNAKNTVYLQMHSLKPEDTAVYYCNADFRPAYTYDYWGQGTQVTVSS | low polyreactivity
QVQLVDTAGGLVQAGGILRLSCAASGSTMYGYAMGWYRQTPGKERELVAAINTGGSTNYADSVKGRFTISRDNAKNTVYLQMNSLKPDDTAVYYCAASYSLSFWDKDDYWGQGTQVTVSS | low polyreactivity
QVQLVESGGGLVQAGGSLRLSCAASGRIFGGYAMGWYRQAPGKERELVAAISRSGGSTYYADSVKGRFTISRDNAKNTVYLQMNSLKPEDTAVYYCNVASKRALSRYKGYYWGQGTQVTVSS | high polyreactivity
QVQLVESGGGLVQAGGSLRLSCAASGSIFGVNAMGWYRQTPGKERELVARINWSSGRTYYADSVKGRFTISRDNAKNTVYLQMNSLKQEDTAVYYCAAAYWRPGVRFFGPYDYWGQGTQVTVSS | high polyreactivity
QVQLVESGGGLVQAGGSLRLSCAASGRTFYFYAMGWYRQAPGKERELVASITSSGGNTYYADSVKGRVTISRDNAKNTVYLQMNSLKPEDTAVYYCAARWFPWLQWKRYDYWGQGTQVTVSS | low polyreactivity
QVQLVESGGGLVQAGGSLRLSCAASGRTFKHYAMGWYRQAPGKERELVAAITSGGSTYYADSVKGRFTISRDNAKNTVYLQMNSLKPEDTAVYYCNKESYFDTYRRYDSWGQGTQVTVSS | low polyreactivity
QVQLVESGGGLVQAGGSLRLSCAASGSTVKYAMGWYRQAPGKERELVAAISSRGGSTSYADSVNGRFTISRDNAKNTVYLQMNSLKPEDTAVYSCARRIRQQRFGGNYWGQGTQVTVSS | high polyreactivity
QVQLVESGGGLVQAGGSLRLSCAASGRTLRYNVMGWYRHAPGKERELVAAISSGGSTYYADSVKGRFTISRDNAKNTVYLQMNSLKPEDTAVYYCAKRVSNWVTGGGYYYWGQGTQVTVSS | high polyreactivity
QVQLVESGGGLVQAGGSLRLSCSASGFILSYYARGWYRQSPGKERELVAAISRAGSTNYADSVKGRFTISRDNAKNTVYLQMNSLKPEDTAVYYCNKRQYSARVSRSYDYWGQGTQVTVSS | high polyreactivity
QVQLVDSGGGLVQAGGSLRLSCAASGLTFGFNAMGWYRQAPGKERELVAAISSGGSTYYADSVKGRFTISRDNAKNTVYLQMNSLKPEDTAVYYCATSVRQYGRTTYYYWGQGTQVTVSS | high polyreactivity

Sequence | polyreactivity (PSR sort gate)
QVQLVESGGGLVQAGGSHRLSCAASGSTFPAYAMGLYRQAPGKERELVAAINTTGGNTYYADSVKGRFTISRDNAKNTVYFQMNSLKPEDTAVYYCAADYKARYSEKFDYWGQGTQVTVSS | low polyreactivity
QVQLVESGGALVQAGGSLRLSCAASGSTFPYYAMGWYRQAPGKERELVAAISRGGGITYYADSVKGRLTISRDNAKNTVYLQMISLKPEDTAVYYCAARGFWWPYTYYYWGQGTQVTVSS | high polyreactivity
QVQLVESGGGLVQAGGSLRLSCAASGSIFSGNAMGRYRQAPGKERELVAAISRSGGSTYYADSVKGRFTISRDNAKNTVYLQMNSLKPEDTAVYYCAAYRTHGPPRAIRFDYWGQGTQVTVSS | high polyreactivity
QVQLVESGGGLVQAGGSLRLSCAASGSIFYFNAMGWYRQAPGKERELVAAINSGGSTYYADSVKGRFTISRDNAKNTVYLQMNSLKPEDTAVYYCAAVKVDYYITMYYWGQGTQVTVSS | high polyreactivity
QVQLVESGGGLVQAGGSLRLSCAASGRTFEYNGMGWYSQAPGKEWELVAAITRGGSTYYADSVKGRFTISRDNAKNTVYLQMNSLKPEDTAVYYCAAVVGWSRYKWLEYWGQGTQVTVSS | low polyreactivity
QVHLGQSGGGLVQAGGSLRLSCAASAITFRGNAMGWYRQAPGKERDLVAVITKGGVSTYYADSVKGRFTISRDNAKNTVYLQMNSLKPEVTAVYYCAKYWSWRSVKDYYWGLGTQVTVSS | high polyreactivity
QVQIVESGGGLVQAGGSLRLSCAPSGRIITRKTMGWYRQAPGKEREFVAAISQSGGRTYYADSVKGRFTISRDNAKNTVYLQMNSLKPEDTAVYYCNAQFARSSGFNYWGQGTQVTVSS | high polyreactivity
QVQLVESGGGLVQAGGSLRLSCAASGRIFGWYSMGWYRQAPGKERELVAAISSNGGSTYYADSVKGRFTISRDNAKNTVYLQMNSLKPEDTAVYFCAAVRVFQYKYDRFNYWGQGTQVTVSS | high polyreactivity
QVQLVESGGGLVQAGGSLRLSCAASGSIFYYYVMGWYRQAPGKEREFGAAISWGGDSTYYADSVKGRFTISRDNAMYTVYLQMNSLKPEDTAVYYCNADYPWSVVCYAYWGQGTQVTVSS | low polyreactivity
QVQLVESGGGLVQAGGSLRLSCAASGSTFRVNVMGLYRQAPGKERELVAAIDSGGSTYYADSVKGRFTISRDNAKNTVYLQMNSLKPEYTAVYYCNSRVDSPSPYDYWGQGTQVTVSS | low polyreactivity
QVQLVESGGGLVQAGGSLRLSCAASGSTSDIYAMGWYRQAPGKEREFVAAISLTGGTTYYADSVKGRFTISCDNAKNTVYLQMNSLKPEDTAVYYCNADVGWWGYDDDYWGQGTQVTVSS | high polyreactivity
QVQLEESGRGLDQAGVSLRLSCAASVSTFAGYAMGWYRQAPVKERELVATITYSGGSTYYADSVKGRFTISRDNAKNTVYLQMNSLKPEDTAVYYCAKKASDWWGYEYWGQGTQVTVSS | low polyreactivity
QVQLVESGGGLVQAGGSLRLSCAASGSIFHVNAMGWYRQAPGKERELVAGISDGGSTYYADSVKGRFTISRDNAKNTVYLQMNSLKPEDTAVYYCAAESEQWYSYVLSYDWEYDYWGQGTQVTVSS | low polyreactivity
QVQLVESGGGLVQAGGSLRLSCAASGFIFSTYAMGWYRQAPGKERELVAAITRGGRTYYADSVKGRFTISRDNAKNTVYLQMNSLIPEDTAVYYCAVFVHGDYWGQGTQVTVSS | high polyreactivity
QVQLVESGGGLVQAGGSLRLSCASSGSIFGSYAMGWYRQPPGKESELDAAITGIGGSTYYADSVKGRFTISRDNAKNTVYLQMNSLKPEATAVYYCATRDRYRAPVVGGNYWVQGTQVTVSS | high polyreactivity
QFQLVESVGGLVQAGGSLRLSCAASGITFPANAMGWYRQAPGKERELVAAISSSGGSTYYADSVKGRFTISRDNAKNTVYLQMNSLKPEDTAVYYCAAYYGPSRSLYYYWGQGTQVTVSS | high polyreactivity
